Article PMC3735194 (mBio, 2013)

B1: D166A mutant ADI (enzyme, UniProt P0C0B3 1-411, looked up)
chain: MTAQTPIHVYSEIGKLKKVLLHRPGKEIENLMPDYLERLLFDDIPFLEDAQKEHDAFAQALRDEGIEVLYLETLAAESLVTPEIREAFIDEYLSEANIRGRATKKAIRELLMAIEDNQELIEKTMAGVQKSELPEIPASEKGLTDLVESNYPFAIDPMPNLYFTRAPFATIGTGVSLNHMFSETRNRETLYGKYIFTHHPIYGGGKVPMVYDRNETTRIEGGDELVLSKDVLAVGISQRTDAASIEKLLVNIFKQNLGFKKVLAFEFANNRKFMHLDTVFTMVDYDKFTIHPEIEGDLRVYSVTYDNEELHIVEEKGDLAELLAANLGVEKVDLIRCGGDNLVAAGREQWNDGSNTLTIAPGVVVVYNRNTITNAILESKGLKLIKIHGSELVRGRGGPRCMSMPFEREDI
B2: E220A mutant ADI (enzyme, UniProt P0C0B3 1-411, looked up)
chain: MTAQTPIHVYSEIGKLKKVLLHRPGKEIENLMPDYLERLLFDDIPFLEDAQKEHDAFAQALRDEGIEVLYLETLAAESLVTPEIREAFIDEYLSEANIRGRATKKAIRELLMAIEDNQELIEKTMAGVQKSELPEIPASEKGLTDLVESNYPFAIDPMPNLYFTRDPFATIGTGVSLNHMFSETRNRETLYGKYIFTHHPIYGGGKVPMVYDRNETTRIAGGDELVLSKDVLAVGISQRTDAASIEKLLVNIFKQNLGFKKVLAFEFANNRKFMHLDTVFTMVDYDKFTIHPEIEGDLRVYSVTYDNEELHIVEEKGDLAELLAANLGVEKVDLIRCGGDNLVAAGREQWNDGSNTLTIAPGVVVVYNRNTITNAILESKGLKLIKIHGSELVRGRGGPRCMSMPFEREDI
B3: H275A mutant ADI (enzyme, UniProt P0C0B3 1-411, looked up)
chain: MTAQTPIHVYSEIGKLKKVLLHRPGKEIENLMPDYLERLLFDDIPFLEDAQKEHDAFAQALRDEGIEVLYLETLAAESLVTPEIREAFIDEYLSEANIRGRATKKAIRELLMAIEDNQELIEKTMAGVQKSELPEIPASEKGLTDLVESNYPFAIDPMPNLYFTRDPFATIGTGVSLNHMFSETRNRETLYGKYIFTHHPIYGGGKVPMVYDRNETTRIEGGDELVLSKDVLAVGISQRTDAASIEKLLVNIFKQNLGFKKVLAFEFANNRKFMALDTVFTMVDYDKFTIHPEIEGDLRVYSVTYDNEELHIVEEKGDLAELLAANLGVEKVDLIRCGGDNLVAAGREQWNDGSNTLTIAPGVVVVYNRNTITNAILESKGLKLIKIHGSELVRGRGGPRCMSMPFEREDI
B4: D277A mutant ADI (enzyme, UniProt P0C0B3 1-411, looked up)
chain: MTAQTPIHVYSEIGKLKKVLLHRPGKEIENLMPDYLERLLFDDIPFLEDAQKEHDAFAQALRDEGIEVLYLETLAAESLVTPEIREAFIDEYLSEANIRGRATKKAIRELLMAIEDNQELIEKTMAGVQKSELPEIPASEKGLTDLVESNYPFAIDPMPNLYFTRDPFATIGTGVSLNHMFSETRNRETLYGKYIFTHHPIYGGGKVPMVYDRNETTRIEGGDELVLSKDVLAVGISQRTDAASIEKLLVNIFKQNLGFKKVLAFEFANNRKFMHLATVFTMVDYDKFTIHPEIEGDLRVYSVTYDNEELHIVEEKGDLAELLAANLGVEKVDLIRCGGDNLVAAGREQWNDGSNTLTIAPGVVVVYNRNTITNAILESKGLKLIKIHGSELVRGRGGPRCMSMPFEREDI
B5: C401A mutant ADI (enzyme, UniProt P0C0B3 1-411, looked up)
chain: MTAQTPIHVYSEIGKLKKVLLHRPGKEIENLMPDYLERLLFDDIPFLEDAQKEHDAFAQALRDEGIEVLYLETLAAESLVTPEIREAFIDEYLSEANIRGRATKKAIRELLMAIEDNQELIEKTMAGVQKSELPEIPASEKGLTDLVESNYPFAIDPMPNLYFTRDPFATIGTGVSLNHMFSETRNRETLYGKYIFTHHPIYGGGKVPMVYDRNETTRIEGGDELVLSKDVLAVGISQRTDAASIEKLLVNIFKQNLGFKKVLAFEFANNRKFMHLDTVFTMVDYDKFTIHPEIEGDLRVYSVTYDNEELHIVEEKGDLAELLAANLGVEKVDLIRCGGDNLVAAGREQWNDGSNTLTIAPGVVVVYNRNTITNAILESKGLKLIKIHGSELVRGRGGPRAMSMPFEREDI

Target: the molecule itself
Assay: native MS

Protein | stoichiometry N
B1 | 2
B2 | 2
B3 | 2
B4 | 2
B5 | 4
